# Source: the nanobody polyreactivity screen of Harvey et al. (2022)
# Experiment: yeast display, Sf9 membrane polyspecificity reagent, FACS + sequencing; frameworks hold sequencing errors
# In short: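 Galactose-induced (36–48 hours) yeast carrying a synthetic nanobody display library were exposed to 10% biotinylated, detergent-solubilized Sf9 membrane reagent at 4 °C for 1 hour. FACS followed streptavidin microbead enrichment, using low and high (top ~1%) gates for expression (anti-HA) and reagent binding (streptavidin). Colony PCR, MiSeq 2 × 250 sequencing and CDR-length filtering followed. Labels for polyreactivity reflect the gate of origin.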
row,Sequence,polyreactivity (PSR sort gate)
1,QVQLEESGGRLVQAGGSLRLSCAASGFTFRYYAMGWYRQAPGKERELVAAITSGGSTNYADSVKGRFTISRDNAKNTVYLQMNSLKPEDTAVYYCKKVPWGSRRMDYWGQGTQVTVSS,high polyreactivity
2,QVQLVESGGGLVQAGGSLRLSCAASGRIFSGYAMGWYRQAPGKEREFVAAITSSGRTKYADSVKGRFTISRDNAKNTVYLQMNSLKPEDTAVYYCAARPSQWNYDYRRVYYWGQGTQVTVSS,high polyreactivity
3,QVQLVESGGGLVQAGCSLRLSCAASGRIFSRNAMGWYRQAPGKERELVAVITKRGGSTYYADSVKGRFTISRDKAKNTVYLQMNSLKPEDTAVYYCNAVPRRGIAFNHWGQGTHVTVSS,high polyreactivity
4,QDQLVDSGGGLVQAGGSLRLICAASGRTYRKYAMGWYRQAPGKERELVADISWSGGSTYYANSVKGRFTISRDIAKNTVYLQMNSLKPEDTAVYYCAAVPVHTGSLYWGFTTGYDYWGQGTQVTVSS,low polyreactivity
5,QVQLIESGGGLVQAGGSLRLSCAASGRTFRYNAMGWYRQAPGKERELVAGISTGGSTYYADSVKGRFTISRDNAKNTVYLQMNSLKPEDTAVYYCARYYHARPNGPRSDDYDYWGQGTQVTVSS,low polyreactivity
6,QVQLVESGGGLVQAGGSLRLSCAASGSIFPHYAMGWYRQAHGKERELVAAMSYSGGRTYYADSVKGRFTISRDNAKNTVYLQMNSLKPEDTAVYYCAKPERVLYHGDYWGQGTQVTVSS,low polyreactivity
7,QVQLVESGGGLVQAGGSLRLSCAASGSTFTTNVMGWYRQAPGKERELVAAISWSSGSTYYADSVKGRFTISRDNAKNTVSLPMNSLKPEDTAVYYCAARQVIFYPYSRYYYWGQGTQVTVSS,high polyreactivity
8,QVQLVESGGGLVQAGGSLRLSCAASGRIFKSDGMGWYREAPGKERELVATISSSGDSTYYADSVKGRFTISRDNAKNTVYLQMNSLKPDDTAVYHCAKRARYKFGYWGQGTQVTVSS,high polyreactivity
9,QVQLVESGGGLVQAGGSLRLSCAASGRIFYMNAMGWYRQAPGKERELVAGITNSTTGTYYADSVKGRFTISRDNAKNTVYLQMNSLKPEDTAVYYCNTDVAYEEPVETYDYWGQGTQVTVSS,low polyreactivity
10,QVQLVESGGGLVQAGGSLRLSCAASGSIFDSNAMGWYRQAPGKERELVASIDRGGDTNYADSVKGRFTISRDNAKNTVYLQMNSLKPEDTAVYYCAAYYYKWVWIGMDYWGQGTQVTVSS,low polyreactivity
11,QVQLVESGGGLVQAGGSLRLSCAASGFTFWVYAMGWYRQAPGKEREFVAAISGIGDDTNYADSVKGRFTISRDNAKNTVYLQMNSLKPEDTAVYYCATVALRYYGVTEFDYWGQGTQVTVSS,high polyreactivity
12,QVQLVESGGGLVQAGGRLRISCADSGSTFQFYALGWYRQAPGKERQLVASIRVRSGTTYYADSVKGRFTISRENAKNTVYLQMTSLKPEDTAVYYCAAGRPFYGRKYDYWGQGTQVTVSS,high polyreactivity
13,QVQLVESGGGLVQAGGSLRLSCAASGRTSQINAMGWYIQAPGKERELVAAITRGGGITYYADSVKGRFTISRDNAKNTVYLQMNSLKPEDTAVYYCATRGSSFVQYRTRYGYWGQGTQVTVSS,high polyreactivity
14,QVQLVESGGGLVQAGGSLRLSCAASGRIFKYYAKGWYIQAPGKERELVAAINRDGGRTYYADSVKGRFTISRDNAKNTVYLQMNSLKPEDTAVYYCAASYGYVYTTSLDYWGQGTQVTVSS,low polyreactivity
15,QVQRVESGGGIVQAGGSLRLSCAASGSTFSYYAMGWYRQAPGKERELVAAISSSGGNTYYADSVKGRFTISRDNAKNTVYLQMNSLKPEDTAVYYCAKLYRYIYGGMDYWGQGTQVTVSS,high polyreactivity
16,QVQLVESGGGLVQAGGSLRLSCAPSRRIFRSYAMGWYSQAPGKERELVAAISSRGSTYYADSVKGRFTISRDNEKNTVFLQMNSLKPEDTAVYYCAVHLWVYPLKREFYWGQGTQVTVSS,high polyreactivity
17,QVQLVESGGGLVQAGGSLRLSCAASGIIFPQYTMGWYRQAPGKERQLVAAITRSGGSTDYADSVKGRFTISRDNAKNTVYLQMNSLKPEDTAVYYCAAGWWRYKYPIGSSYNYWGQGTQVTVSS,high polyreactivity
18,QVQLVESGGGLVQAGGSLRLSCAASGLIFSYYAMGWYIQAPGKERVLVAAISGVGSTNYADSVKGRFTISRDNEKNTVYLQMNSLKPEDTAVYYCAARFVLRRDYGYWGQGTQVTVSS,high polyreactivity
19,QVQLVESGGGLVQAGGSLRLSCAASGSTSVVNAMGWYRQAPGKERELVAAISTGGASTYYADSVKGRFTISRDNAKNTVYLQMNSLNPEDTAVYYCAADLGYEYDYWGQGTQVTVSS,high polyreactivity
20,QVQLVESGGALVQAGGSLRISCAASGLTFKLYTMGWYRQAPGKERELLAAISRSGTRTYYADSVKGRFTISRDNAKNTVYLLMNSLKPEDTADYYCAARTDGYRNNYWGQGTQVTVSS,high polyreactivity
21,QVQLVESGGGLVQAGGSLRLSCAASGSTFDTYTRGWYRQAPGKERELVAAITTSGGSTYYADSVKGRFTISRDNAKNTVYLQMNSLKPEDTAVYYCAADFFPGGYPEMDYWGQGTQVTVSS,high polyreactivity
22,QVQLVESGGGLVQAGGSLRLSCAASGSIFVYNAMGWYRQAPGKERELVAAITNGGSTNYADSVKGRFTISRDNAKNTVYLQMNSLNPEDTAVYYCAARRYTSAVWWRPRHYYWGQGTQVTVSS,high polyreactivity

row,Sequence,polyreactivity (PSR sort gate)
1,QVQLVESGGGLVQAGGSLRLSCAASGRTFVYNAMGWYRQAPGIERELVAAITTSGASTYYADSVKGRFTISRDNAKNTVYLQMNSLKPEDTAVYDCNAYSRYSYGRTYGYWGQGTQVTVSS,high polyreactivity
2,QVQLVESGGGLVQAGGSLRLSCAASGGIFPYYAMGWYRQAPGKERELVADISSGGSTYYADSVKGRFTISRDNAKNTVYLQMNSLKPEDTAVYYCAADAGQYFTYSGDDNHDYWGQGTQVTVSS,low polyreactivity
3,QDQHVESGGGLVQAGGSLRLICSASGSTNGLGWYRQAPGKERELVAVITWDTGGTYYADSVKGRFTISRDNAKNTVYLQMNSLKPEDTAVYYCAKDVGHGAGNLMGYWGQGTQVTVSS,low polyreactivity
4,QVQLVESGGGLVQAGGSLRLSCAASGFTIADYAMGWYRQAPGKERELVAAITYSGGSTYYADSVKGRFTISRDNAKNTVYLQMNSLKPEDTAVYYWNADYASQSGYDYWGQGTQVTVSS,low polyreactivity
5,QVQLVESGGGLVQAGGSLRLSCAASGFTFASYVMGWYRQAPGKERELVASISWSGGRTYYADSVKGRFTISRDNAKNTVYLQMNSLKPEDTAVYYCNVLVTRYSPWFLYNYWGLGTQVTVSS,high polyreactivity
6,QVQLVESGGGLVQAGGSLRLSCAASGITFQWNAMGWYRQAPGKERELVAAISSGTSTYYADSVKGRFTISRDNAKNTVYLQMNSLKPEDTAVYYCNAVKSWGHPGRYYWGQGTQVTVSS,high polyreactivity
7,QVQIVESGGGLVQAGGSLRLSCAASGSTFWYNAMGWYRQAPGKERELVAAITWTGDGTYYADSVKGRFTISRDNAKNTVYLQMNSLKPEDTAVYYCAAAYFQWSTSIVGLDAGYDYWGQGTQVNVSS,low polyreactivity
8,QDQLVESGGGLVQAGGSLRLSCAASGRIFKYNAMGWYRQAPRKERELVAAITRGGSTNYADSVKGRFTISRDNAKNTVYFQLNSLKPEDTEVYYCAALRSRYGRDMDSWGQGTQVSVSS,high polyreactivity
9,QVQLVESVGGLVQAGGSLRLSCAASGRTFDSNAMGWYRQAPGKERELVAAISYSGGSTYYADSVKGRFTISRDNAKNTVYLQMNSLKPEDTAVYYCNAGAVHKKPARDYWGQGTQVTVSS,low polyreactivity
10,QVQLVESGGGLVQAGGSLRLSCAASGRTFYGNVMGWYRQPPGKERELVATISFSAGSTYYADSVKGRFTISRDNAKNTVYLQMNSLKPEDTAVYYCNADHTDYATGGGNYWGQGTQVTVSS,low polyreactivity
11,QVQLVESGGGLVQAGGSLRLSWAASGRTIVYYAMGWYSQAPGKEREFVAAISRSGGRTSYADSVKGRFTISRDNAKNTVYLHMNILKPDDTAVYYCAAEKRTQPTSREYYWGKGTQVTVSS,high polyreactivity
12,QVQHVESGGGLVQAGGSLRLSCAASGSIFRIYAMGWYRQAPGKERELVAAISVSTGSRTYYADSVKGRFTISRDNAKNTVYLQMNSLKPEDTAVYYCNAESYYDYNYWGQGTQVTVSS,low polyreactivity
13,QVQLVESGGGLVQAGGSLRLSCAASGFTFYQYAMGWYRQAPGKERELVASISWSGGRTYYADSVKGRFTISRDNAKNTVYLQMNSLKPEDTAVYYCAARAYRIAGYDYWGQGTQVTVSS,high polyreactivity
14,QVQLVDSAGGLVQAGGSLRLSCAAYGRTNYLYSMGWYRQAPGKERELVAAIRTGDGSTYYADSVKGRFTISRDNAKNTVYLQMISLKPEDTAVYYCAARVGKRYNWGQGTQVTVSS,high polyreactivity
15,QVQLVESGGGLVQAGGSLRLSCAASGRTFGYNVMGWYRQAPGKERELVAAISSGGNTYYADSVKGRFTISRDNAKNTVYLQMNSLKPEDTAVYYCNARQYRYLSDRMNYWGQGTQVTVSS,low polyreactivity
16,QVQLVESGGGLVQAGGSLRLSCAASGLIFPYNAMGWYRQAPGKERELVAAIDSGVTTYYADSVKGRFTISRDNAKNTVYLQMNSLKPEDTAVYFCAADGLPGPEGDSWGQGTQVSVSS,low polyreactivity
17,QVQLVESGGGLVQAGGSLRLSCAASGSIFIWNALGCYRQAPGKERELVAAIRSSGGTTYYADSVKGRFTISRDNAKYTVYVQMNSLKPEDTAVYYCARRGYSSSYRYPRYYYWGQGTQVTVSS,high polyreactivity
18,QEQLQESGGGLVQAGGSLRLSCAASGSISGSSTMGWYRQAPGKERELVASIAVGANTNYADSAKGRFTISRDNAKNTVYLQMNSLKPEDTAVYYCAVDYYIYYFHYWGQGTQVTVSS,high polyreactivity
19,QVQLVESGGGLVQAGGSLRLSCAASGITFKSYAMGWYRQAPGKERELVAAIARRGGSTYYADSVKGRFTISRDNAKNTVYLQMNSLKPEDTAVYYCAADSGREPKGPSRLTYWGQGTQVTVSS,high polyreactivity
20,QVQLVESGGGLVQAGGSLRLSCAASGSTFSTNAMGWYSPAPGKERELVAASTVSGGRTYYADSVKGRFTISRDNAKNTVYLQMNSLKPEDTAVYYCATDTSRLSIFGYVSFYYWGQGTQVNVSS,low polyreactivity
21,QVQLVESVGGLVQAGGSLRLSCAASGRIFLIYSMGWYRQAPGKERELVADISKGGSSTYYADSVKGRFTISRDNAKNTVYLQMNSLKPEDSAVYYCAASGRWTGRQAAYDYWGQGTQVTVSS,high polyreactivity
